First the molecules themselves.
B2: Human ubiquitin C-terminal hydrolase Uch37, full-length (enzyme, UniProt Q9Y5K5 1-329, looked up)
chain: MTGNAGEWCLMESDPGVFTELIKGFGCRGAQVEEIWSLEPENFEKLKPVHGLIFLFKWQPGEEPAGSVVQDSRLDTIFFAKQVINNACATQAIVSVLLNCTHQDVHLGETLSEFKEFSQSFDAAMKGLALSNSDVIRQVHNSFARQQMFEFDTKTSAKEEDAFHFVSYVPVNGRLYELDGLREGPIDLGACNQDDWISAVRPVIEKRIQKYSEGEIRFNLMAIVSDRKMIYEQKIAELQRQLAEEEPMDTDQGNSMLSAIQSEVAKNQMLIEEEVQKLKRYKIENIRRKHNYLPFIMELLKTLAEHQQLIPLVEKAKEKQNAKKAQETK
B3: Full-length Uch37 containing only one cysteine (C27), labelled with Alexa Fluor 555 and Alexa Fluor 647 (enzyme, human, UniProt Q9Y5K5 1-329, looked up)
chain: MTGNAGEWALMESDPGVFTELIKGFGCRGAQVEEIWSLEPENFEKLKPVHGLIFLFKWQPGEEPAGSVVQDSRLDTIFFAKQVINNAAATQAIVSVLLNATHQDVHLGETLSEFKEFSQSFDAAMKGLALSNSDVIRQVHNSFARQQMFEFDTKTSAKEEDAFHFVSYVPVNGRLYELDGLREGPIDLGAANQDDWISAVRPVIEKRIQKYSEGEIRFNLMAIVSDRKMIYEQKIAELQRQLAEEEPMDTDQGNSMLSAIQSEVAKNQMLIEEEVQKLKRYKIENIRRKHNYLPFIMELLKTLAEHQQLIPLVEKAKEKQNAKKAQETK
modifications: Cys27 conjugated to Alexa Fluor 555 or Alexa Fluor 647 (randomly)

Series [1] addresses B2. In words: SPR; Biacore3000, 25°C, PBS; Rpn13C immobilised on CM5 by amine coupling, Uch37 15.6-500 nmol/L flowed over; 1:1 Langmuir model. The conditions noted are these: both partners purified. For orientation: SPR reads the build-up and loss of mass on a sensor chip optically.
In series [2] the target is B3. In words: FRET or BRET; Uch37 (C27 only) randomly labelled with Alexa Fluor 555 and 647, 250 nmol/L, excited at 550 nm; then an excess molar amount of Rpn13C added, 30 min. The settings on record: both partners purified. In general terms: In BRET a luciferase serves as donor, and the signal depends on an acceptor being close.
Series [3] deals with the molecule itself. Kind of series: time-resolved SAXS; stopped-flow mixing of Uch37 and Rpn13C at a 1:1 monomer molar ratio, overall 3.7 mg/mL, 8 ms to 600 s; I0 and Rg against time.
Series [4] deals with the molecule itself. Kind of series: FRET or BRET; Uch37 (C27 only) randomly labelled with Alexa Fluor 555 and 647, 250 nmol/L, excited at 550 nm; then an excess molar amount of Rpn13C added, 30 min.

For orientation: Kd means the free concentration of one partner at which half of the binding sites on the other are occupied at equilibrium, for simple one-to-one binding. A low value points to a tighter complex.

B1: Rpn13C (Rpn13 residues 270-407) (domain or fragment, UniProt Q16186 270-407, looked up)
chain: ILATMNVPAGPAGGQQVDLASVLTPEIMAPILANADVQERLLPYLPSGESLPQTADEIQNTLTSPQFQQALGMFSAALASGQLGPLMCQFGLPAEAVEAANKGDVEAFAKAMQNNAKPEQKEGDTKDKKDEEEDMSLD
Turning to B1, in series [1], the Kd amounted to 5.35 nM. Moreover, in series [2], the binding result is given as “binds”.
Turning to B2, the binding result in series [3] was “binds”.
On to B3, for which the binding result in series [4] was “binds”.
